How the values were obtained:
[1] = test system: HeLa Kyoto; assay: solubility in G1/S (NP-40 vs SDS abundance) (log2 ratio); higher = more soluble; conditions: cell cycle stage: G1/S
[2] = test system: HeLa Kyoto; assay: thermal stability score vs G1/S (z-score of summed log2 fold changes over temperatures); higher = more thermally stable than in G1/S
[3] = test system: HeLa Kyoto; assay: melting temperature (median over replicates), in situ; higher = more thermally stable
[4] = test system: HeLa Kyoto; assay: solubility change mitosis vs G1/S (difference of NP-40 vs SDS log2 ratios) (log2 ratio difference); higher = more soluble in mitosis
[5] = cell cycle stage: early G1 (4.5 h after nocodazole release)
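Throughout, for melting temperature (median over replicates), in situ: HeLa Kyoto cells synchronized by double thymidine or nocodazole block, proteins quantified by TMT10plex mass spectrometry, three independent biological replicates.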
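Throughout, for solubility change mitosis vs G1/S (difference of NP-40 vs SDS log2 ratios): synchronized HeLa Kyoto cells (double thymidine block for G1/S, nocodazole release for mitosis), protein amounts in NP-40 versus SDS lysates quantified by mass spectrometry, three biological replicates.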
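Throughout, for solubility in G1/S (NP-40 vs SDS abundance): HeLa Kyoto cells arrested at G1/S by double thymidine block, proteins quantified by TMT10plex mass spectrometry in mild NP-40 versus SDS extracts, three biological replicates.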
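Throughout, for thermal stability score vs G1/S (z-score of summed log2 fold changes over temperatures): synchronized HeLa Kyoto cells, proteins quantified by TMT10plex mass spectrometry, three biological replicates, mitosis taken 0.5 h after nocodazole release, G1/S directly after double thymidine block.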

| Substance | solubility in G1/S (log2) [1] | thermal stability score [2, 5] | thermal stability score ([2]; cell cycle stage: mitosis) | melting temperature ([3]; cell cycle stage: G1/S) | melting temperature ([3]; cell cycle stage: mitosis) | solubility change mitosis (log2) [4] |
| --- | --- | --- | --- | --- | --- | --- |
| MNLASQSGEAGAGQLLFANFNQDNTEVKGASRAAGLGRRAVVWSLAVGSKSGYKFFSLSSVDKLEQIYECTDTEDVCIVERLFSSSLVAIVSLKAPRKLKVCHFKKGTEICNYSYSNTILAVKLNRQRLIVCLEESLYIHNIRDMKVLHTIRETPPNPAGLCALSINNDNCYLAYPGSATIGEVQVFDTINLRAANMIPAHDSPLAALAFDASGTKLATASEKGTVIRVFSIPEGQKLFEFRRGVKRCVSICSLAFSMDGMFLSASSNTETVHIFKLETVKEKPPEEPTTWTGYFGKVLMASTSYLPSQVTEMFNQGRAFATVRLPFCGHKNICSLATIQKIPRLLVGAADGYLYMYNLDPQEGGECALMKQHRLDGSLETTNEILDSASHDCPLVTQTYGAAAGKGTYVPSSPTRLAYTDDLGAVGGACLEDEASALRLDEDSEHPPMILRTD [WIPI2] | 0.0209 | -0.953 | -0.659 | 50.4 °C | 51.1 °C | -0.0675 |
| MAEGDEAARGQQPHQGLWRRRRTSDPSAAVNHVSSTTSLGENYEDDDLVNSDEVMKKPCPVQIVLAHEDDHNFELDEEALEQILLQEHIRDLNIVVVSVAGAFRKGKSFLLDFMLRYMYNKDSQSWIGGNNEPLTGFTWRGGCERETTGIQVWNEVFVIDRPNGTKVAVLLMDTQGAFDSQSTIKDCATVFALSTMTSSVQVYNLSQNIQEDDLQHLQLFTEYGRLAMEEIYQKPFQTLMFLIRDWSYPYEHSYGLEGGKQFLEKRLQVKQNQHEELQNVRKHIHNCFSNLGCFLLPHPGLKVATNPSFDGRLKDIDEDFKRELRNLVPLLLAPENLVEKEISGSKVTCRDLVEYFKAYIKIYQGEELPHPKSMLQATAEANNLAAVAGARDTYCKSMEQVCGGDKPYIAPSDLERKHLDLKEVAIKQFRSVKKMGGDEFCRRYQDQLEAEIEETYANFIKHNDGKNIFYAARTPATLFAVMFAMYIISGLTGFIGLNSIAVLCNLVMGLALIFLCTWAYVKYSGEFREIGTVIDQIAETLWEQVLKPLGDNLMEENIRQSVTNSIKAGLTDQVSHHARLKTD [ATL2] | -0.0336 | -0.416 | -0.584 | 51.8 °C | 51.8 °C | -0.192 |
| MSELTKELMELVWGTKSSPGLSDTIFCRWTQGFVFSESEGSALEQFEGGPCAVIAPVQAFLLKKLLFSSEKSSWRDCSEEEQKELLCHTLCDILESACCDHSGSYCLVSWLRGKTTEETASISGSPAESSCQVEHSSALAVEELGFERFHALIQKRSFRSLPELKDAVLDQYSMWGNKFGVLLFLYSVLLTKGIENIKNEIEDASEPLIDPVYGHGSQSLINLLLTGHAVSNVWDGDRECSGMKLLGIHEQAAVGFLTLMEALRYCKVGSYLKSPKFPIWIVGSETHLTVFFAKDMALVAPEAPSEQARRVFQTYDPEDNGFIPDSLLEDVMKALDLVSDPEYINLMKNKLDPEGLGIILLGPFLQEFFPDQGSSGPESFTVYHYNGLKQSNYNEKVMYVEGTAVVMGFEDPMLQTDDTPIKRCLQTKWPYIELLWTTDRSPSLN [FAM188A] | 0.00352 | -0.555 | -1.31 | – | 52.9 °C | -0.147 |
| MQALRHVVCALSGGVDSAVAALLLRRRGYQVTGVFMKNWDSLDEHGVCTADKDCEDAYRVCQILDIPFHQVSYVKEYWNDVFSDFLNEYEKGRTPNPDIVCNKHIKFSCFFHYAVDNLGADAIATGHYARTSLEDEEVFEQKHVKKPEGLFRNRFEVRNAVKLLQAADSFKDQTFFLSQVSQDALRRTIFPLGGLTKEFVKKIAAENRLHHVLQKKESMGMCFIGKRNFEHFLLQYLQPRPGHFISIEDNKVLGTHKGWFLYTLGQRANIGGLREPWYVVEKDSVKGDVFVAPRTDHPALYRDLLRTSRVHWIAEEPPAALVRDKMMECHFRFRHQMALVPCVLTLNQDGTVWVTAVQAVRALATGQFAVFYKGDECLGSGKILRLGPSAYTLQKGQRRAGMATESPSDSPEDGPGLSPLL [TRMU] | -0.242 | 0.5 | 0.388 | 50.7 °C | 51.1 °C | -0.134 |
| MAANKSKGQSSLALHKVIMVGSGGVGKSALTLQFMYDEFVEDYEPTKADSYRKKVVLDGEEVQIDILDTAGQEDYAAIRDNYFRSGEGFLLVFSITEHESFTATAEFREQILRVKAEEDKIPLLVVGNKSDLEERRQVPVEEARSKAEEWGVQYVETSAKTRANVDKVFFDLMREIRTKKMSENKDKNGKKSSKNKKSFKERCCLL [RALB] | 0.046 | -0.446 | -2.23 | 57 °C | 57.7 °C | 0.0599 |
| PARP4 | -0.0707 | 1.67 | 0.026 | 50.7 °C | 49.8 °C | -0.107 |
| MSRIESLTRARIDRSRELASKTREKEKMKEAKDARYTNGHLFTTISVSGMTMCYACNKSITAKEALICPTCNVTIHNRCKDTLANCTKVKQKQQKAALLKNNTALQSVSLRSKTTIRERPSSAIYPSDSFRQSLLGSRRGRSSLSLAKSVSTTNIAGHFNDESPLGLRRILSQSTDSLNMRNRTLSVESLIDEAEVIYSELMSDFEMDEKDFAADSWSLAVDSSFLQQHKKEVMKQQDVIYELIQTELHHVRTLKIMTRLFRTGMLEELHLEPGVVQGLFPCVDELSDIHTRFLSQLLERRRQALCPGSTRNFVIHRLGDLLISQFSGPSAEQMCKTYSEFCSRHSKALKLYKELYARDKRFQQFIRKVTRPAVLKRHGVQECILLVTQRITKYPLLISRILQHSHGIEEERQDLTTALGLVKELLSNVDEGIYQLEKGARLQEIYNRMDPRAQTPVPGKGPFGREELLRRKLIHDGCLLWKTATGRFKDVLVLLMTDVLVFLQEKDQKYIFPTLDKPSVVSLQNLIVRDIANQEKGMFLISAAPPEMYEVHTASRDDRSTWIRVIQQSVRTCPSREDFPLIETEDEAYLRRIKMELQQKDRALVELLREKVGLFAEMTHFQAEEDGGSGMALPTLPRGLFRSESLESPRGERLLQDAIREVEGLKDLLVGPGVELLLTPREPALPLEPDSGGNTSPGVTANGEARTFNGSIELCRADSDSSQRDRNGNQLRSPQEEALQRLVNLYGLLHGLQAAVAQQDTLMEARFPEGPERREKLCRANSRDGEAGRAGAAPVAPEKQATELALLQRQHALLQEELRRCRRLGEERATEAGSLEARLRESEQARALLEREAEEARRQLAALGQTEPLPAEAPWARRPVDPRRRSLPAGDALYLSFNPPQPSRGTDRLDLPVTTRSVHRNFEDRERQELGSPEERLQDSSDPDTGSEEEGSSRLSPPHSPRDFTRMQDIPEETESRDGEAVASES [ARHGEF2] | -0.137 | 0.217 | 2.08 | 48.4 °C | 48.4 °C | -0.0226 |
| MNWELLLWLLVLCALLLLLVQLLRFLRADGDLTLLWAEWQGRRPEWELTDMVVWVTGASSGIGEELAYQLSKLGVSLVLSARRVHELERVKRRCLENGNLKEKDILVLPLDLTDTGSHEAATKAVLQEFGRIDILVNNGGMSQRSLCMDTSLDVYRKLIELNYLGTVSLTKCVLPHMIERKQGKIVTVNSILGIISVPLSIGYCASKHALRGFFNGLRTELATYPGIIVSNICPGPVQSNIVENSLAGEVTKTIGNNGDQSHKMTTSRCVRLMLISMANDLKEVWISEQPFLLVTYLWQYMPTWAWWITNKMGKKRIENFKSGVDADSSYFKIFKTKHD [DHRS7] | -0.297 | -1.54 | -1.34 | 56.6 °C | 56.6 °C | -0.0912 |
| MNKKKKPFLGMPAPLGYVPGLGRGATGFTTRSDIGPARDANDPVDDRHAPPGKRTVGDQMKKNQAADDDDEDLNDTNYDEFNGYAGSLFSSGPYEKDDEEADAIYAALDKRMDERRKERREQREKEEIEKYRMERPKIQQQFSDLKRKLAEVTEEEWLSIPEVGDARNKRQRNPRYEKLTPVPDSFFAKHLQTGENHTSVDPRQTQFGGLNTPYPGGLNTPYPGGMTPGLMTPGTGELDMRKIGQARNTLMDMRLSQVSDSVSGQTVVDPKGYLTDLNSMIPTHGGDINDIKKARLLLKSVRETNPHHPPAWIASARLEEVTGKLQVARNLIMKGTEMCPKSEDVWLEAARLQPGDTAKAVVAQAVRHLPQSVRIYIRAAELETDIRAKKRVLRKALEHVPNSVRLWKAAVELEEPEDARIMLSRAVECCPTSVELWLALARLETYENARKVLNKARENIPTDRHIWITAAKLEEANGNTQMVEKIIDRAITSLRANGVEINREQWIQDAEECDRAGSVATCQAVMRAVIGIGIEEEDRKHTWMEDADSCVAHNALECARAIYAYALQVFPSKKSVWLRAAYFEKNHGTRESLEALLQRAVAHCPKAEVLWLMGAKSKWLAGDVPAARSILALAFQANPNSEEIWLAAVKLESENDEYERARRLLAKARSSAPTARVFMKSVKLEWVQDNIRAAQDLCEEALRHYEDFPKLWMMKGQIEEQKEMMEKAREAYNQGLKKCPHSTPLWLLLSRLEEKIGQLTRARAILEKSRLKNPKNPGLWLESVRLEYRAGLKNIANTLMAKALQECPNSGILWSEAIFLEARPQRRTKSVDALKKCEHDPHVLLAVAKLFWSQRKITKAREWFHRTVKIDSDLGDAWAFFYKFELQHGTEEQQEEVRKRCESAEPRHGELWCAVSKDIANWQKKIGDILRLVAGRIKNTF [PRPF6] | -0.849 | 1.08 | 5.32 | 46.8 °C | 48.1 °C | 0.428 |
| MSDNPPRMEVCPYCKKPFKRLKSHLPYCKMIGPTIPTDQKVYQSKPATLPRAKKMKGPIKDLIKAKGKELETENEERNSKLVVDKPEQTVKTFPLPAVGLERAATTKADKDIKNPIQPSFKMLKNTKPMTTFQEETKAQFYASEKTSPKRELAKDLPKSGESRCNPSEAGASLLVGSIEPSLSNQDRKYSSTLPNDVQTTSGDLKLDKIDPQRQELLVKLLDVPTGDCHISPKNVSDGVKRVRTLLSNERDSKGRDHLSGVPTDVTVTETPEKNTESLILSLKMSSLGKIQVMEKQEKGLTLGVETCGSKGNAEKSMSATEKQERTVMSHGCENFNTRDSVTGKESQGERPHLSLFIPRETTYQFHSVSQSSSQSLASLATTFLQEKKAEAQNHHCVPDVKALMESPEGQLSLEPKSDSQFQASHTGCQSPLCSAQRHTPQSPFTNHAAAAGRKTLRSCMGLEWFPELYPGYLGLGVLPGKPQCWNAMTQKPQLISPQGERLSQVSLLERSSTHIRSLEPPAGLTTSNFSLMRLLGAVQKGWIRCNTTIRKSGFGGITMLFTGYFVLCCSWSFRRLKKLCRPLPWKSTVPPCIGVAKTTGDCRSKTCLD [C17ORF80] | 0.0361 | -2.69 | -2.84 | 54.5 °C | 54 °C | -0.00249 |
| MDSKESLTPGREENPSSVLAQERGDVMDFYKTLRGGATVKVSASSPSLAVASQSDSKQRRLLVDFPKGSVSNAQQPDLSKAVSLSMGLYMGETETKVMGNDLGFPQQGQISLSSGETDLKLLEESIANLNRSTSVPENPKSSASTAVSAAPTEKEFPKTHSDVSSEQQHLKGQTGTNGGNVKLYTTDQSTFDILQDLEFSSGSPGKETNESPWRSDLLIDENCLLSPLAGEDDSFLLEGNSNEDCKPLILPDTKPKIKDNGDLVLSSPSNVTLPQVKTEKEDFIELCTPGVIKQEKLGTVYCQASFPGANIIGNKMSAISVHGVSTSGGQMYHYDMNTASLSQQQDQKPIFNVIPPIPVGSENWNRCQGSGDDNLTSLGTLNFPGRTVFSNGYSSPSMRPDVSSPPSSSSTATTGPPPKLCLVCSDEASGCHYGVLTCGSCKVFFKRAVEGQHNYLCAGRNDCIIDKIRRKNCPACRYRKCLQAGMNLEARKTKKKIKGIQQATTGVSQETSENPGNKTIVPATLPQLTPTLVSLLEVIEPEVLYAGYDSSVPDSTWRIMTTLNMLGGRQVIAAVKWAKAIPGFRNLHLDDQMTLLQYSWMFLMAFALGWRSYRQSSANLLCFAPDLIINEQRMTLPCMYDQCKHMLYVSSELHRLQVSYEEYLCMKTLLLLSSVPKDGLKSQELFDEIRMTYIKELGKAIVKREGNSSQNWQRFYQLTKLLDSMHEVVENLLNYCFQTFLDKTMSIEFPEMLAEIITNQIPKYSNGNIKKLLFHQK [NR3C1] | 0.0188 | 0.508 | 1.98 | 48.2 °C | 49.3 °C | -0.168 |

From the supplement of paper PMC5998384
